Experimental data from the supplement of paper PMC7877785.
± gives the uncertainty stated by the source.

Assay: self-splicing fitness, log relative to wild type (ln ratio); higher = more splicing; Tetrahymena group I intron in knt gene, E. coli kanamycin selection, DiMSum; sequences stand for … in CUCUCU…GGAGGGAAAAGUUAUCAGGCAUGCACCUGGUAGCUAGUCUUUAAACCAAUAGAUUGCAUCGGUUUAAAAGGCAAGACCGUCAAAUUGCGGGAAAGGGGUCAACAGCCGUUCAGUACCAAGUCUCAGGGGAAACUUUGAGAUGGCCUUGCAAAGGGUAUGGUAAUAAGCUGACGGACAUGGUCCUAACCACGCAGCCAAGUCCUAAGUCAACAGAUCUUCUGUUGAUAUGGAUGCAGUUCACAGACUAAAUGUCGGUCGGGGAAGAUGUAUUCUUCUCAUAAGAUAUAGUCGGACCUCUCCUUAAUGGGAGCUAGCGGAUGAAGUGAUGCAACACUGGAGCCGCUGGGAACUAAUUUGUAUGCGAAAGUAUAUUGAUUAGUUUUGGAGUACUCGUGGUCG
Method in brief: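 DiMSum derived fitness as the error-weighted combination of fold changes across replicates, kanamycin versus no kanamycin, normalised to wild type. E. coli BL21(DE3) held the library, which randomised all eight P1ex-region intron nucleotides within the knt kanamycin-resistance gene on pET-22b(+). Six replicate transformations grew overnight at 37°C or 30°C on LB agar with or without 25 μg/mL kanamycin, also containing 100 μg/mL carbenicillin, 50 μM IPTG and 0.2% rhamnose, and pooled colonies were amplicon-sequenced on an Illumina HiSeq 2500.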

GCUAAGCAAUAUUACGGCAG
self-splicing fitness (ln) (30 °C): -3.28 ± 0.34
self-splicing fitness (ln) (37 °C): -2.85 ± 0.34

GCUAAGCAAUAUUACGGCGA
self-splicing fitness (ln) (30 °C): -0.936 ± 0.1
self-splicing fitness (ln) (37 °C): -0.247 ± 0.13

GCUAAGCAAUAUUACGGGUA
self-splicing fitness (ln) (30 °C): -1.32 ± 0.097
self-splicing fitness (ln) (37 °C): 0.109 ± 0.09

GCUAAGCAAUAUUACGGUCA
self-splicing fitness (ln) (30 °C): -0.887 ± 0.13
self-splicing fitness (ln) (37 °C): -0.914 ± 0.15

GCUAAGCAAUAUUACGGUGC
self-splicing fitness (ln) (30 °C): -3.38 ± 0.22
self-splicing fitness (ln) (37 °C): -2.6 ± 0.39

GCUAAGCAAUAUUACGUAAG
self-splicing fitness (ln) (30 °C): -0.616 ± 0.11
self-splicing fitness (ln) (37 °C): 0.0143 ± 0.15

GCUAAGCAAUAUUACGUACG
self-splicing fitness (ln) (30 °C): -1.67 ± 0.1
self-splicing fitness (ln) (37 °C): -1.13 ± 0.1

GCUAAGCAAUAUUACGUAGA
self-splicing fitness (ln) (30 °C): -0.845 ± 0.055
self-splicing fitness (ln) (37 °C): -0.223 ± 0.069

GCUAAGCAAUAUUACGUAGG
self-splicing fitness (ln) (30 °C): -1.34 ± 0.059
self-splicing fitness (ln) (37 °C): -0.249 ± 0.087

GCUAAGCAAUAUUACGUCAC
self-splicing fitness (ln) (30 °C): -3.38 ± 0.44
self-splicing fitness (ln) (37 °C): -2.35 ± 0.24

GCUAAGCAAUAUUACGUCCU
self-splicing fitness (ln) (30 °C): -0.847 ± 0.14
self-splicing fitness (ln) (37 °C): 0.223 ± 0.17

GCUAAGCAAUAUUACGUGAA
self-splicing fitness (ln) (30 °C): -0.92 ± 0.059
self-splicing fitness (ln) (37 °C): -0.304 ± 0.074

GCUAAGCAAUAUUACGUGCU
self-splicing fitness (ln) (30 °C): -2.4 ± 0.14
self-splicing fitness (ln) (37 °C): -2.13 ± 0.25

GCUAAGCAAUAUUACGUGGC
self-splicing fitness (ln) (30 °C): -2.87 ± 0.23
self-splicing fitness (ln) (37 °C): -2.46 ± 0.41

GCUAAGCAAUAUUACGUUAG
self-splicing fitness (ln) (30 °C): -2.7 ± 0.28
self-splicing fitness (ln) (37 °C): -2.2 ± 0.28

GCUAAGCAAUAUUACGUUCG
self-splicing fitness (ln) (30 °C): -0.791 ± 0.097
self-splicing fitness (ln) (37 °C): -0.25 ± 0.17

GCUAAGCAAUAUUACGUUGA
self-splicing fitness (ln) (30 °C): -1.97 ± 0.14
self-splicing fitness (ln) (37 °C): -0.945 ± 0.14

GCUCAGCAAUAUUACGAACU
self-splicing fitness (ln) (30 °C): -0.913 ± 0.068
self-splicing fitness (ln) (37 °C): -0.48 ± 0.079

GCUCAGCAAUAUUACGAAGA
self-splicing fitness (ln) (30 °C): -0.583 ± 0.12
self-splicing fitness (ln) (37 °C): -0.863 ± 0.14

GCUCAGCAAUAUUACGAAUG
self-splicing fitness (ln) (30 °C): -1.59 ± 0.12
self-splicing fitness (ln) (37 °C): -0.636 ± 0.14

GCUCAGCAAUAUUACGAUCG
self-splicing fitness (ln) (30 °C): -1.02 ± 0.1
self-splicing fitness (ln) (37 °C): 0.77 ± 0.13

GCUCAGCAAUAUUACGCCAC
self-splicing fitness (ln) (37 °C): -1.97 ± 0.47

GCUCAGCAAUAUUACGCCGC
self-splicing fitness (ln) (30 °C): -3.66 ± 0.44

GCUCAGCAAUAUUACGCGGU
self-splicing fitness (ln) (30 °C): -3.01 ± 0.15
self-splicing fitness (ln) (37 °C): -2.22 ± 0.21

GCUCAGCAAUAUUACGCUAU
self-splicing fitness (ln) (30 °C): -1.61 ± 0.11
self-splicing fitness (ln) (37 °C): -0.658 ± 0.097

GCUCAGCAAUAUUACGCUCC
self-splicing fitness (ln) (30 °C): -1.05 ± 0.15
self-splicing fitness (ln) (37 °C): 0.283 ± 0.26

GCUCAGCAAUAUUACGGACC
self-splicing fitness (ln) (30 °C): -0.753 ± 0.1
self-splicing fitness (ln) (37 °C): -0.186 ± 0.13

GCUCAGCAAUAUUACGGACG
self-splicing fitness (ln) (30 °C): -1.11 ± 0.079
self-splicing fitness (ln) (37 °C): -0.474 ± 0.11

GCUCAGCAAUAUUACGGCCG
self-splicing fitness (ln) (30 °C): -3.86 ± 0.27
self-splicing fitness (ln) (37 °C): -2.15 ± 0.27

GCUCAGCAAUAUUACGGCUC
self-splicing fitness (ln) (30 °C): -0.525 ± 0.13
self-splicing fitness (ln) (37 °C): 0.408 ± 0.17

GCUCAGCAAUAUUACGGGUU
self-splicing fitness (ln) (30 °C): -1.29 ± 0.1
self-splicing fitness (ln) (37 °C): -1.09 ± 0.1

GCUCAGCAAUAUUACGGUGC
self-splicing fitness (ln) (30 °C): -1.82 ± 0.19
self-splicing fitness (ln) (37 °C): -1.29 ± 0.16

GCUCAGCAAUAUUACGUAAA
self-splicing fitness (ln) (30 °C): -0.495 ± 0.064
self-splicing fitness (ln) (37 °C): 0.264 ± 0.086

GCUCAGCAAUAUUACGUAUC
self-splicing fitness (ln) (30 °C): -0.849 ± 0.078
self-splicing fitness (ln) (37 °C): 0.011 ± 0.077

GCUCAGCAAUAUUACGUCAG
self-splicing fitness (ln) (30 °C): -4.87 ± 0.42
self-splicing fitness (ln) (37 °C): -3.23 ± 0.16

GCUCAGCAAUAUUACGUGAC
self-splicing fitness (ln) (30 °C): -1.88 ± 0.092
self-splicing fitness (ln) (37 °C): -1.03 ± 0.11

GCUCAGCAAUAUUACGUGCG
self-splicing fitness (ln) (30 °C): -1.32 ± 0.084
self-splicing fitness (ln) (37 °C): -0.22 ± 0.1

GCUCAGCAAUAUUACGUGGG
self-splicing fitness (ln) (30 °C): -3.65 ± 0.19
self-splicing fitness (ln) (37 °C): -1.85 ± 0.16

GCUCAGCAAUAUUACGUGUG
self-splicing fitness (ln) (30 °C): -1.26 ± 0.063
self-splicing fitness (ln) (37 °C): -0.824 ± 0.074

GCUCAGCAAUAUUACGUUCA
self-splicing fitness (ln) (30 °C): -0.466 ± 0.095
self-splicing fitness (ln) (37 °C): -0.686 ± 0.12

GCUGAGCAAUAUUACGAACA
self-splicing fitness (ln) (30 °C): -3.44 ± 0.36
self-splicing fitness (ln) (37 °C): -2.89 ± 0.38

GCUGAGCAAUAUUACGAAUA
self-splicing fitness (ln) (30 °C): -2.55 ± 0.29
self-splicing fitness (ln) (37 °C): -1.53 ± 0.39

GCUGAGCAAUAUUACGAAUC
self-splicing fitness (ln) (30 °C): -1.15 ± 0.12
self-splicing fitness (ln) (37 °C): -0.914 ± 0.17

GCUGAGCAAUAUUACGAAUU
self-splicing fitness (ln) (30 °C): -2.46 ± 0.22
self-splicing fitness (ln) (37 °C): -1.36 ± 0.19

GCUGAGCAAUAUUACGACAU
self-splicing fitness (ln) (30 °C): -2.265 ± 0.018
self-splicing fitness (ln) (37 °C): -1.08 ± 0.035

GCUGAGCAAUAUUACGACCU
self-splicing fitness (ln) (30 °C): -2.35 ± 0.26
self-splicing fitness (ln) (37 °C): -1.15 ± 0.33

GCUGAGCAAUAUUACGAUCG
self-splicing fitness (ln) (37 °C): -0.335 ± 0.25

GCUGAGCAAUAUUACGCAAA
self-splicing fitness (ln) (30 °C): -4.1 ± 0.39
self-splicing fitness (ln) (37 °C): -1.55 ± 0.29
